Assay results as given in patent US20260176621A1, “Metabolically Stabilized Carbohydrate Targeting Ligands For Oligonucleotide Conjugates” (Arrowhead Pharmaceuticals, Inc., priority 2023, published 2026).
Where “and” joins values, the source holds several entries; their conditions need not be identical. Equal values may be shown once.

B1: AD14216: multimeric (dimer) FXII-ANGPTL3 RNAi agent conjugate with NAG37s ligand, not metabolically stabilized, SEQ ID NO 5-7 (nucleic acid)
chain 1: UUCAAAGCACUUUAUUGAG
chain 2: UUGAGUUGAGUUCAAGUGA
chain 3: UCACUUGAACUCAACUCAACUCAAUAAAGUGCUUUGAA
modifications: NAG37s ligand conjugate; modified_base 1 OTHER; 5'-cyclopropyl phosphonate-2'-O-methyluridine; modified_base 1^2 OTHER; phosphorothioate linkage; modified_base 2 OTHER; 2'-fluorouridine; modified_base 2^3 OTHER; modified_base 3 cm; modified_base 3^4 OTHER; modified_base 4 OTHER; 2'-fluoroadenosine; modified_base 5 OTHER; 2'-O-methyladenosine; modified_base 6 OTHER; 2'-fl; phosphoro
B2: AD14217: multimeric (dimer) FXII-ANGPTL3 RNAi agent conjugate with metabolically stabilized NAG42s ligand, SEQ ID NO 8-10 (nucleic acid)
chain 1: UUCAAAGCACUUUAUUGAG
chain 2: UUGAGUUGAGUUCAAGUGA
chain 3: B1 chain 3
modifications: NAG42s ligand conjugate; modified_base 1 OTHER; 5'-cyclopropyl phosphonate-2'-O-methyluridine; modified_base 1^2 OTHER; phosphorothioate linkage; modified_base 2 OTHER; 2'-fluorouridine; modified_base 2^3 OTHER; modified_base 3 cm; modified_base 3^4 OTHER; modified_base 4 OTHER; 2'-fluoroadenosine; modified_base 5 OTHER; 2'-O-methyladenosine; modified_base 6 OTHER; 2'-fl; phosphoro
B3: AD14218: multimeric (dimer) FXII-ANGPTL3 RNAi agent conjugate with metabolically stabilized NAG52s ligand, SEQ ID NO 11-13 (nucleic acid)
chain 1: UUCAAAGCACUUUAUUGAG
chain 2: UUGAGUUGAGUUCAAGUGA
chain 3: B1 chain 3
modifications: NAG52s ligand conjugate; modified_base 1 OTHER; 5'-cyclopropyl phosphonate-2'-O-methyluridine; modified_base 1^2 OTHER; phosphorothioate linkage; modified_base 2 OTHER; 2'-fluorouridine; modified_base 2^3 OTHER; modified_base 3 cm; modified_base 3^4 OTHER; modified_base 4 OTHER; 2'-fluoroadenosine; modified_base 5 OTHER; 2'-O-methyladenosine; modified_base 6 OTHER; 2'-fl; phosphoro

Key:
FXII = experiment: Serum FXII protein by ELISA after single SC dose in cynomolgus monkeys (Example 4); format: in vivo, cynomolgus macaque (Macaca fascicularis); design: key to Avg cFXII normalized to pre-treatment and control: ratio to animal's pre-dose geometric mean, then to saline group mean
Procedure: (§1) Multimeric (dimer) RNAi agent conjugates that included metabolically stabilized NAG targeting ligands were evaluated for gene silencing activity in cynomolgus macaque (Macaca fascicularis) primates (referred to herein as “cynos”). Each of the multimeric RNAi agent conjugates evaluated included one RNAi agent of the conjugate having sufficient complementarity with the mouse Angiopoietin-like 3 (ANGPTL3) gene transcript, and a second RNAi agent having sufficient complementarity with the mouse Factor 12 (FXII) gene transcript. As discussed in more detail below, both FXII and ANGPTL3 gene expression levels were assessed.
(§2) At day 1, male cynos were given a single subcutaneous administration of 0.3 mL/kg animal weight (20 mg/mL concentration) containing 6.0 mg/kg (mpk) of a multimeric RNAi agent conjugate formulated in isotonic saline, or 3.0 mg/kg of two separate RNAi conjugates, according to the following Table 3.
(§3) Three (3) cynos were dosed in each Group (n=3). Serum samples were taken on days −14, −7, and day 1 (pre-dose). Serum was then collected on days 8, 15, 22, 29, 36 43, 50, 57, 64, 71, 78, 98, 106, 120, 133, 148, and 162.
(§4) ANGPTL3 protein levels in serum were measured by ELISA assay (R&D Systems), according to the manufacturer's recommendations. FXII protein levels in serum were measured by ELISA assay (R&D Systems), according to the manufacturer's recommendations. The ANGPTL3 protein levels and FXII protein levels for each animal were normalized. For normalization, the level of ANGPTL3 protein or FXII protein, respectively, for each animal at a time point, was divided by the geometric mean of pre-treatment level of expression in that animal (in this case at days −14, −7 and 1 (pre-dose)) to determine the ratio of expression “normalized to pre-treatment.” Expression at a specific time point was then normalized to the saline control group by dividing the “normalized to pre-treatment” ratio for an individual animal by the mean “normalized to pretreatment” ratio of all […] in the saline control group.

ANGPTL3 = experiment: Serum ANGPTL3 protein by ELISA after single SC dose in cynomolgus monkeys (Example 4); format: in vivo, cynomolgus macaque (Macaca fascicularis); design: key to Avg cANGPTL3 normalized to pre-treatment and control: ratio to animal's pre-dose geometric mean, then to saline group mean
Procedure: as §1, §2, §3, §4

[1] = Day 8, single SC dose day 1, 6.0 mg/kg (Group 1: 3.0+3.0 mg/kg)
[2] = Day 15, single SC dose day 1, 6.0 mg/kg (Group 1: 3.0+3.0 mg/kg)
[3] = Day 22, single SC dose day 1, 6.0 mg/kg (Group 1: 3.0+3.0 mg/kg)
[4] = Day 29, single SC dose day 1, 6.0 mg/kg (Group 1: 3.0+3.0 mg/kg)
[5] = Day 36, single SC dose day 1, 6.0 mg/kg (Group 1: 3.0+3.0 mg/kg)
[6] = Day 43, single SC dose day 1, 6.0 mg/kg (Group 1: 3.0+3.0 mg/kg)
[7] = Day 50, single SC dose day 1, 6.0 mg/kg (Group 1: 3.0+3.0 mg/kg)
[8] = Day 57, single SC dose day 1, 6.0 mg/kg (Group 1: 3.0+3.0 mg/kg)
[9] = Day 64, single SC dose day 1, 6.0 mg/kg (Group 1: 3.0+3.0 mg/kg)
[10] = Day 71, single SC dose day 1, 6.0 mg/kg (Group 1: 3.0+3.0 mg/kg)
[11] = Day 78, single SC dose day 1, 6.0 mg/kg (Group 1: 3.0+3.0 mg/kg)
[12] = Day 98, single SC dose day 1, 6.0 mg/kg (Group 1: 3.0+3.0 mg/kg)
[13] = Day 106, single SC dose day 1, 6.0 mg/kg (Group 1: 3.0+3.0 mg/kg)
[14] = Day 120, single SC dose day 1, 6.0 mg/kg (Group 1: 3.0+3.0 mg/kg)
[15] = Day 133, single SC dose day 1, 6.0 mg/kg (Group 1: 3.0+3.0 mg/kg)
[16] = Day 148, single SC dose day 1, 6.0 mg/kg (Group 1: 3.0+3.0 mg/kg)
[17] = Day 162, single SC dose day 1, 6.0 mg/kg (Group 1: 3.0+3.0 mg/kg)

Molecule | Avg cFXII normalized to pre-treatment and control (FXII; [1]) | Avg cFXII normalized to pre-treatment and control (FXII; [2]) | Avg cFXII normalized to pre-treatment and control (FXII; [3]) | cFXII knockdown (FXII; [3]) | Avg cFXII normalized to pre-treatment and control (FXII; [4]) | Avg cFXII normalized to pre-treatment and control (FXII; [5]) | Avg cFXII normalized to pre-treatment and control (FXII; [6]) | Avg cFXII normalized to pre-treatment and control (FXII; [7]) | Avg cFXII normalized to pre-treatment and control (FXII; [8]) | Avg cFXII normalized to pre-treatment and control (FXII; [9]) | Avg cFXII normalized to pre-treatment and control (FXII; [10]) | Avg cFXII normalized to pre-treatment and control (FXII; [11]) | Avg cFXII normalized to pre-treatment and control (FXII; [12]) | cFXII knockdown (FXII; [12]) | Avg cFXII normalized to pre-treatment and control (FXII; [13]) | Avg cFXII normalized to pre-treatment and control (FXII; [14]) | Avg cFXII normalized to pre-treatment and control (FXII; [15]) | Avg cFXII normalized to pre-treatment and control (FXII; [16]) | Avg cFXII normalized to pre-treatment and control (FXII; [17]) | Avg cANGPTL3 normalized to pre-treatment and control (ANGPTL3; [1]) | further results
B1 | 0.481 | 0.320 | 0.222 | approximately 78% | 0.179 | 0.224 | 0.237 | 0.130 | 0.194 | 0.184 | 0.429 | 0.491 | 0.592 | approximately 41% | 0.520 | 0.567 | 0.784 | 0.589 | 0.728 | 0.442 | Avg cANGPTL3 normalized to pre-treatment and control (ANGPTL3; [2]): 0.362; Avg cANGPTL3 normalized to pre-treatment and control (ANGPTL3; [3]): 0.339; cANGPTL3 knockdown (ANGPTL3; [3]): approximately 66%; Avg cANGPTL3 normalized to pre-treatment and control (ANGPTL3; [4]): 0.403; Avg cANGPTL3 normalized to pre-treatment and control (ANGPTL3; [5]): 0.369; Avg cANGPTL3 normalized to pre-treatment and control (ANGPTL3; [6]): 0.394; Avg cANGPTL3 normalized to pre-treatment and control (ANGPTL3; [7]): 0.560; Avg cANGPTL3 normalized to pre-treatment and control (ANGPTL3; [8]): 0.622; Avg cANGPTL3 normalized to pre-treatment and control (ANGPTL3; [9]): 0.590; Avg cANGPTL3 normalized to pre-treatment and control (ANGPTL3; [10]): 0.641; Avg cANGPTL3 normalized to pre-treatment and control (ANGPTL3; [11]): 0.603; Avg cANGPTL3 normalized to pre-treatment and control (ANGPTL3; [12]): 0.666; Avg cANGPTL3 normalized to pre-treatment and control (ANGPTL3; [13]): 0.944; cANGPTL3 knockdown (ANGPTL3; [13]): no meaningful knockdown; Avg cANGPTL3 normalized to pre-treatment and control (ANGPTL3; [14]): 1.128; Avg cANGPTL3 normalized to pre-treatment and control (ANGPTL3; [15]): 1.129
B2 | 0.430 | 0.230 | 0.219 | approximately 78% | 0.095 | 0.126 | 0.103 | 0.104 | 0.065 | 0.093 | 0.211 | 0.230 | 0.316 | approximately 69% | 0.316 | 0.443 | 0.536 | 0.567 | 0.468 | 0.361 | Avg cANGPTL3 normalized to pre-treatment and control (ANGPTL3; [2]): 0.288; Avg cANGPTL3 normalized to pre-treatment and control (ANGPTL3; [3]): 0.194; cANGPTL3 knockdown (ANGPTL3; [3]): approximately 81%; Avg cANGPTL3 normalized to pre-treatment and control (ANGPTL3; [4]): 0.261; Avg cANGPTL3 normalized to pre-treatment and control (ANGPTL3; [5]): 0.246; Avg cANGPTL3 normalized to pre-treatment and control (ANGPTL3; [6]): 0.272; Avg cANGPTL3 normalized to pre-treatment and control (ANGPTL3; [7]): 0.327; Avg cANGPTL3 normalized to pre-treatment and control (ANGPTL3; [8]): 0.456; Avg cANGPTL3 normalized to pre-treatment and control (ANGPTL3; [9]): 0.548; Avg cANGPTL3 normalized to pre-treatment and control (ANGPTL3; [10]): 0.521; Avg cANGPTL3 normalized to pre-treatment and control (ANGPTL3; [11]): 0.505; Avg cANGPTL3 normalized to pre-treatment and control (ANGPTL3; [12]): 0.490; Avg cANGPTL3 normalized to pre-treatment and control (ANGPTL3; [13]): 0.777 and 0.770; cANGPTL3 knockdown (ANGPTL3; [13]): approximately 33%; Avg cANGPTL3 normalized to pre-treatment and control (ANGPTL3; [14]): 0.943; Avg cANGPTL3 normalized to pre-treatment and control (ANGPTL3; [15]): 0.892
B3 | 0.299 | 0.201 | 0.156 | approximately 85% | 0.077 | 0.058 | 0.058 | 0.032 | 0.056 | 0.038 | 0.094 | 0.109 | 0.139 | approximately 86% | 0.158 | 0.194 | 0.213 | 0.263 | 0.285 | 0.252 | cFXII inhibition (FXII; Day 162, single SC dose day 1, 6.0 mg/kg): more than 70%; Avg cANGPTL3 normalized to pre-treatment and control (ANGPTL3; [2]): 0.238; Avg cANGPTL3 normalized to pre-treatment and control (ANGPTL3; [3]): 0.137; cANGPTL3 knockdown (ANGPTL3; [3]): ~86%; Avg cANGPTL3 normalized to pre-treatment and control (ANGPTL3; [4]): 0.161; Avg cANGPTL3 normalized to pre-treatment and control (ANGPTL3; [5]): 0.186; Avg cANGPTL3 normalized to pre-treatment and control (ANGPTL3; [6]): 0.164; Avg cANGPTL3 normalized to pre-treatment and control (ANGPTL3; [7]): 0.212; Avg cANGPTL3 normalized to pre-treatment and control (ANGPTL3; [8]): 0.245; Avg cANGPTL3 normalized to pre-treatment and control (ANGPTL3; [9]): 0.352; Avg cANGPTL3 normalized to pre-treatment and control (ANGPTL3; [10]): 0.328; Avg cANGPTL3 normalized to pre-treatment and control (ANGPTL3; [11]): 0.354; Avg cANGPTL3 normalized to pre-treatment and control (ANGPTL3; [12]): 0.425; Avg cANGPTL3 normalized to pre-treatment and control (ANGPTL3; [13]): 0.565; cANGPTL3 knockdown (ANGPTL3; [13]): approximately 45%; Avg cANGPTL3 normalized to pre-treatment and control (ANGPTL3; [14]): 0.637; Avg cANGPTL3 normalized to pre-treatment and control (ANGPTL3; [15]): 0.672
